Values belong to the binder of their own block, whether it stands above or below them.
Experiments:
[1] = target: IgE on basophils of ragweed allergic patients; assay: cell-based or functional assay
[2] = target: Amb a 1 specific IgE (in serum); assay: competition ELISA: soluble competitor pre-incubated with serum, IgE binding to plate-coated Amb a 1
[3] = target: Amb a 1 specific IgE (in serum); assay: competition ELISA: soluble competitor pre-incubated with serum, IgE binding to plate-coated Amb a 1; two lots gave the same value
[4] = target: Amb a 1 specific IgE (in serum); assay: competition ELISA, ratio against soluble Amb a 1 as reference

B2: AIC-H (covalent conjugate of Amb a 1 and ISS-containing polynucleotide SEQ ID NO:1, high extent of conjugation) (protein, ragweed, UniProt P27759 26-396, looked up)
chain: AEDLQEILPVNETRRLTTSGAYNIIDGCWRGKADWAENRKALADCAQGFGKGTVGGKDGDIYTVTSELDDDVANPKEGTLRFGAAQNRPLWIIFERDMVIRLDKEMVVNSDKTIDGRGAKVEIINAGFTLNGVKNVIIHNINMHDVKVNPGGLIKSNDGPAAPRAGSDGDAISISGSSQIWIDHCSLSKSVDGLVDAKLGTTRLTVSNSLFTQHQFVLLFGAGDENIEDRGMLATVAFNTFTDNVDQRMPRCRHGFFQVVNNNYDKWGSYAIGGSASPTILSQGNRFCAPDERSKKNVLGRHGEAAAESMKWNWRTNKDVLENGAIFVASGVDPVLTPEQSAGMIPAEPGESALSLTSSAGVLSCQPGAPC
modifications: average of >5.5 oligonucleotides (5' thio ISS oligonucleotide, SEQ ID NO:1) per Amb a 1 molecule, linked through the heterobifunctional linker sSMCC; Amb a 1 blocked with N-ethyl maleimide before activation
HR40 (concentration required to induce 40% histamine release), patient four [1]: > 1 µg/mL
HR40 (concentration required to induce 40% histamine release), patient one [1]: 0.5 µg/mL
HR40 (concentration required to induce 40% histamine release), patient three [1]: > 0.1 µg/mL
HR40 (concentration required to induce 40% histamine release), patient two [1]: > 0.1 µg/mL
HR40, mean of four patients [1]: > 0.425 µg/mL
Ratio AIC:Amb a 1 of HR40 [1]: > 1420 fold
IC50 [3]: 0.19 µg/mL
ratio of AIC-H to Amb a 1 for 50% inhibition [4]: 4.75

B3: AIC-L (covalent conjugate of Amb a 1 and ISS-containing polynucleotide SEQ ID NO:1, low extent of conjugation) (protein, ragweed, UniProt P27759 26-396, looked up)
chain: B2 chain
modifications: average of 2-3 oligonucleotides (5' thio ISS oligonucleotide, SEQ ID NO:1) per Amb a 1 molecule, linked through the heterobifunctional linker sSMCC; Amb a 1 blocked with N-ethyl maleimide before activation
HR40 (concentration required to induce 40% histamine release), patient four [1]: 0.026 µg/mL
HR40 (concentration required to induce 40% histamine release), patient one [1]: 0.02 µg/mL
HR40 (concentration required to induce 40% histamine release), patient three [1]: 0.01 µg/mL
HR40 (concentration required to induce 40% histamine release), patient two [1]: 0.018 µg/mL
HR40, mean of four patients [1]: 0.0185 µg/mL
Ratio AIC:Amb a 1 of HR40 [1]: 62 fold

More lines, now with the values ahead:

HR40 (concentration required to induce 40% histamine release), patient four [1]: 0.0003 µg/mL
HR40 (concentration required to induce 40% histamine release), patient one [1]: 0.0002 µg/mL
HR40 (concentration required to induce 40% histamine release), patient three [1]: 0.0003 µg/mL
HR40 (concentration required to induce 40% histamine release), patient two [1]: 0.0002 µg/mL
HR40, mean of four patients [1]: 0.0003 µg/mL
IC50 [2]: 0.04 µg/mL
B1: ragweed allergen Amb a 1 (protein, UniProt P27759 26-396, looked up)
chain: B2 chain

HR40 (concentration required to induce 40% histamine release), patient four [1]: 0.07 µg/mL
HR40 (concentration required to induce 40% histamine release), patient one [1]: 0.03 µg/mL
HR40 (concentration required to induce 40% histamine release), patient three [1]: 0.03 µg/mL
HR40 (concentration required to induce 40% histamine release), patient two [1]: 0.028 µg/mL
HR40, mean of four patients [1]: 0.0395 µg/mL
Ratio AIC:Amb a 1 of HR40 [1]: 132 fold
ratio of AIC-M to Amb a 1 for 50% inhibition [4]: 3
IC50 [2]: 0.12 µg/mL
B4: AIC-M (covalent conjugate of Amb a 1 and ISS-containing polynucleotide SEQ ID NO:1, medium extent of conjugation) (protein, ragweed, UniProt P27759 26-396, looked up)
chain: B2 chain
modifications: average of 3.5 to 4.5 oligonucleotides (5' thio ISS oligonucleotide, SEQ ID NO:1) per Amb a 1 molecule, linked through the heterobifunctional linker sSMCC; Amb a 1 blocked with N-ethyl maleimide before activation
